Test results reported in paper PMC7022988, “General and Genomic DNA-Binding Specificity for the Thermus thermophilus HB8 Transcription Factor TTHB023”.
Where a chain is given by its changes, count along the chain named.

Key:
[1] = molecular target: T1, TTHB023 (PfmR) (Thermus thermophilus HB8) (UniProt Q53WD9); experiment: BLI; conditions: BLI: 20 mM Tris-Cl pH 7.7, 100 mM NaCl, 1 mM EDTA, 0.05% Tween 20, 1.4 nM biotin-DNA loaded at 37 °C, 3.7-300 nM protein; EMSA: 1x NEB CutSmart buffer, 55 °C …
T1 sequence: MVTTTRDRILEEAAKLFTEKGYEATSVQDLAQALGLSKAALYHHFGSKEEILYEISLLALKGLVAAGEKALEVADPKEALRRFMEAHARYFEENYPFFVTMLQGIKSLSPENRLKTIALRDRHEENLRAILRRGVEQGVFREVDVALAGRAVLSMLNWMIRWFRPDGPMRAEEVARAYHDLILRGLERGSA

TTHB023 (PfmR) [2] = molecular target: T2, TTHB023 (PfmR) (Thermus thermophilus HB8, UniProt Q53WD9 1-191); experiment: BLI; slight effect only at 300 nM, nonspecific; Kd extrapolated; BLI: 20 mM Tris-Cl pH 7.7, 100 mM NaCl, 1 mM EDTA, 0.05% Tween 20, 1.4 nM biotin-DNA loaded at 37 °C, 3.7-300 nM protein; EMSA: 1x NEB CutSmart buffer, 55 °C 20 min, 1 ng DNA in 5 µL, 10% native PAGE; conditions: protein: recombinant; chain copies: 2; label: 5' biotin-dT on strand 2; blunt
T2 sequence: T1 sequence

TTHB023 (PfmR) [3] = molecular target: T2, TTHB023 (PfmR); experiment: BLI; printed koff/kon (1.072e-4/2.350e5) does not match printed KD; BLI: 20 mM Tris-Cl pH 7.7, 100 mM NaCl, 1 mM EDTA, 0.05% Tween 20, 1.4 nM biotin-DNA loaded at 37 °C, 3.7-300 nM protein; EMSA: 1x NEB CutSmart buffer, 55 °C 20 min, 1 ng DNA in 5 µL, 10% native PAGE; conditions: protein: recombinant; chain copies: 2; label: 5' biotin-dT on strand 2; blunt
TTHB023 (PfmR) [4] = molecular target: T2, TTHB023 (PfmR); experiment: BLI; BLI: 20 mM Tris-Cl pH 7.7, 100 mM NaCl, 1 mM EDTA, 0.05% Tween 20, 1.4 nM biotin-DNA loaded at 37 °C, 3.7-300 nM protein; EMSA: 1x NEB CutSmart buffer, 55 °C 20 min, 1 ng DNA in 5 µL, 10% native PAGE; conditions: protein: recombinant; chain copies: 2; label: 5' biotin-dT on strand 2; blunt

## CTAGGAATTCGTGCAGAGGTGAATCTGACCGATCGGTCAGTTACCATCCCTCCAGAAGCTTGGACA (double strand) [ST2_B023_R6_wt consensus (BLI probe)]
[1]
  Kd: 2.1 nM

B1: REPSAis control (dsDNA)
DNA 1: CTAGGAATTCGTGCAGAGGTGAATCGTCATAGAATTCGTTACCATCCCTCCAGAAGCTTGGACA
DNA 2: TGTCCAAGCTTCTGGAGGGATGGTAACGAATTCTATGACGATTCACCTCTGCACGAATTCCTAG
TTHB023 (PfmR) [2]
  Kd: 138000 nM

B2: m1 (dsDNA)
DNA 1: CTAGGAATTCGTGCAGAGGTGAATGTGACCGATCGGTCAGTTACCATCCCTCCAGAAGCTTGGACA
DNA 2: TGTCCAAGCTTCTGGAGGGATGGTAACTGACCGATCGGTCACATTCACCTCTGCACGAATTCCTAG
TTHB023 (PfmR) [3]
  Kd: 4.56 nM

B3: m4 (dsDNA)
DNA 1: B2 DNA 1 with G25C, A28C
DNA 2: B2 DNA 2 with T39G, C42G
TTHB023 (PfmR) [4]
  Kd: 27.8 nM

B4: m3 (dsDNA)
DNA 1: B2 DNA 1 with G25C, G27C
DNA 2: B2 DNA 2 with C40G, C42G
TTHB023 (PfmR) [4]
  Kd: 6.62 nM

B5: m5 (dsDNA)
DNA 1: B2 DNA 1 with G25C, C29T
DNA 2: B2 DNA 2 with G38A, C42G
TTHB023 (PfmR) [4]
  Kd: 53.1 nM

B6: m6 (dsDNA)
DNA 1: B2 DNA 1 with G25C, C30G
DNA 2: B2 DNA 2 with G37C, C42G
TTHB023 (PfmR) [4]
  Kd: 279 nM

B7: m8 (dsDNA)
DNA 1: B2 DNA 1 with G25C, A32C
DNA 2: B2 DNA 2 with T35G, C42G
TTHB023 (PfmR) [4]
  Kd: 59.5 nM

B8: m2 (dsDNA)
DNA 1: B2 DNA 1 with G25C, T26G
DNA 2: B2 DNA 2 with A41C, C42G
TTHB023 (PfmR) [4]
  Kd: 23 nM

B9: m7 (dsDNA)
DNA 1: B2 DNA 1 with G25C, G31C
DNA 2: B2 DNA 2 with C36G, C42G
TTHB023 (PfmR) [4]
  Kd: 205 nM
